pIC50, pKd: −log10 of the molar value. Each block holds one sequence with its values, some of them ahead of it.
Experiments:
HLA-A*02:11 [1] = experiment: IEDB peptide-MHC binding, purified MHC/competitive/fluorescence; filed as Kd, often an IC50 or EC50 that approximates it; ≥ and ≤ were set here for values at or beyond the usual limits of such assays; conditions: source organism: Giardia lamblia ATCC 50803
HLA-A*26:01 = experiment: as above
HLA-A*29:02 [2] = experiment: as above; conditions: source organism: Giardia lamblia ATCC 50803
HLA-A*24:03 [3] = experiment: as above; conditions: source organism: Giardia lamblia ATCC 50803
HLA-B*46:01 [4] = experiment: as above
HLA-B*27:03 = experiment: as above
HLA-B*51:01 [5] = experiment: as above
HLA-B*18:01 = experiment: as above
HLA-A*02:12 [6] = experiment: as above; conditions: source organism: Giardia lamblia ATCC 50803
HLA-A*03:01 [7] = experiment: as above; conditions: source organism: Giardia lamblia ATCC 50803
HLA-A*02:01 = experiment: as above
HLA-B*15:01 [8] = experiment: as above
HLA-A*02:19 [9] = experiment: as above; conditions: source organism: Giardia lamblia ATCC 50803
HLA-B*15:17 = experiment: as above
HLA-A*02:03 [10] = experiment: as above; conditions: source organism: Giardia lamblia ATCC 50803
HLA-B*57:01 [11] = experiment: as above
HLA-B*39:01 [12] = experiment: as above
HLA-A*69:01 = experiment: as above
HLA-B*08:01 = experiment: as above
HLA-A*01:01 = experiment: IEDB peptide-MHC binding, purified MHC/direct/fluorescence; filed as Kd, often an IC50 or EC50 that approximates it; ≥ and ≤ were set here for values at or beyond the usual limits of such assays; conditions: source organism: Escherichia coli O157:H7
HLA-B*46:01 [13] = experiment: as above; conditions: source organism: Escherichia coli O157:H7
HLA-B*58:01 = experiment: as above; conditions: source organism: Escherichia coli O157:H7
HLA-A*03:01 [14] = experiment: as above
HLA-B*40:01 = experiment: as above; conditions: source organism: Escherichia coli O157:H7
HLA-A*31:01 = experiment: as above; conditions: source organism: Escherichia coli O157:H7
HLA-B*48:01 = experiment: as above; conditions: source organism: Escherichia coli O157:H7
HLA-A*11:01 = experiment: as above
HLA-B*57:01 [15] = experiment: as above; conditions: source organism: Escherichia coli O157:H7
HLA-B*27:05 = experiment: as above; conditions: source organism: Escherichia coli O157:H7
HLA-B*39:01 [16] = experiment: as above; conditions: source organism: Camelpox virus M-96
HLA-A*24:02 = experiment: IEDB peptide-MHC binding, purified MHC/competitive/fluorescence; ≥ and ≤ were set here for values at or beyond the usual limits of such assays; conditions: source organism: Sudan ebolavirus
HLA-B*15:01 [17] = experiment: as above; conditions: source organism: Sudan ebolavirus
HLA-A*02:11 [18] = experiment: IEDB peptide-MHC binding, purified MHC/direct/fluorescence; filed as Kd, often an IC50 or EC50 that approximates it; ≥ and ≤ were set here for values at or beyond the usual limits of such assays
HLA-A*29:02 [19] = experiment: as above
HLA-A*23:01 = experiment: as above
HLA-A*24:03 [20] = experiment: as above
HLA-A*02:12 [21] = experiment: as above
HLA-A*68:02 = experiment: as above
HLA-B*15:01 [22] = experiment: as above; conditions: source organism: Ebola virus - Eckron (Zaire, 1976)
HLA-A*02:19 [23] = experiment: as above
HLA-A*02:16 = experiment: as above
HLA-A*02:03 [24] = experiment: as above
HLA-B*15:42 = experiment: IEDB peptide-MHC binding, purified MHC/competitive/fluorescence; filed as Kd, often an IC50 or EC50 that approximates it; ≥ and ≤ were set here for values at or beyond the usual limits of such assays; conditions: source organism: Vibrio parahaemolyticus RIMD 2210633
HLA-B*45:06 = experiment: as above; conditions: source organism: Vibrio parahaemolyticus RIMD 2210633
HLA-B*83:01 = experiment: as above; conditions: source organism: Vibrio parahaemolyticus RIMD 2210633
HLA-B*51:01 [25] = experiment: IEDB peptide-MHC binding, purified MHC/direct/fluorescence; filed as Kd, often an IC50 or EC50 that approximates it; ≥ and ≤ were set here for values at or beyond the usual limits of such assays; conditions: source organism: Homo sapiens
[26] = source organism: Giardia lamblia ATCC 50803
[27] = source organism: Escherichia coli O157:H7 str. EDL933
[28] = source organism: Escherichia coli O157:H7
[29] = source organism: Zaire ebolavirus
[30] = source organism: Vibrio parahaemolyticus RIMD 2210633

Sequence: AILAGEHKC
pKd (HLA-A*02:11 [1]): ≤ 4.70
pKd (HLA-A*26:01; [26]): ≤ 4.70
pKd (HLA-A*29:02 [2]): ≤ 4.70
pKd (HLA-A*24:03 [3]): ≤ 4.70
pKd (HLA-B*46:01 [4]; [26]): ≤ 4.70
pKd (HLA-B*27:03; [26]): ≤ 4.70
pKd (HLA-B*51:01 [5]; [26]): ≤ 4.70
pKd (HLA-B*18:01; [26]): ≤ 4.70
pKd (HLA-A*02:12 [6]): 5.43
pKd (HLA-A*03:01 [7]): ≤ 4.70
pKd (HLA-A*02:01; [26]): ≤ 4.70
pKd (HLA-B*15:01 [8]; [26]): ≤ 4.70
pKd (HLA-A*02:19 [9]): ≤ 4.70
pKd (HLA-B*15:17; [26]): ≤ 4.70
pKd (HLA-A*02:03 [10]): ≤ 4.70
pKd (HLA-B*57:01 [11]; [26]): ≤ 4.70
pKd (HLA-B*39:01 [12]; [26]): ≤ 4.70

pKd (HLA-A*69:01; [27]): 6.17
pKd (HLA-A*02:01; [27]): 7.98
pKd (HLA-B*08:01; [27]): 6.04
pKd (HLA-B*15:01 [8]; [27]): 7.03
pKd (HLA-A*01:01): ≤ 4.70
pKd (HLA-B*46:01 [13]): 6.63
pKd (HLA-B*58:01): ≤ 4.70
pKd (HLA-A*03:01 [14]; [28]): ≤ 4.70
pKd (HLA-B*40:01): ≤ 4.70
pKd (HLA-A*31:01): ≤ 4.70
pKd (HLA-B*48:01): ≤ 4.70
pKd (HLA-A*11:01; [28]): ≤ 4.70
pKd (HLA-B*57:01 [15]): ≤ 4.70
pKd (HLA-B*27:05): ≤ 4.70
Sequence: FIVEHINAM

Sequence: HHDPILNGL
pKd (HLA-B*39:01 [16]): 7.37

Sequence: ILNRKAIDF
pKd (HLA-A*26:01; [29]): ≤ 4.70
pKd (HLA-B*46:01 [4]; [29]): ≤ 4.70
pKd (HLA-B*27:03; [29]): ≤ 4.70
pKd (HLA-B*51:01 [5]; [29]): ≤ 4.70
pKd (HLA-B*18:01; [29]): ≤ 4.70
pKd (HLA-A*69:01; [29]): ≤ 4.70
pKd (HLA-A*02:01; [29]): ≤ 4.70
pKd (HLA-B*15:17; [29]): ≤ 4.70
pKd (HLA-B*57:01 [11]; [29]): ≤ 4.70
pKd (HLA-B*39:01 [12]; [29]): ≤ 4.70
pIC50 (HLA-A*24:02): 5.48
pIC50 (HLA-B*15:01 [17]): 4.90
pKd (HLA-A*02:11 [18]; [29]): ≤ 4.70
pKd (HLA-A*29:02 [19]; [29]): ≤ 4.70
pKd (HLA-A*23:01; [29]): ≤ 4.70
pKd (HLA-A*24:03 [20]; [29]): ≤ 4.70
pKd (HLA-A*02:12 [21]; [29]): ≤ 4.70
pKd (HLA-A*68:02; [29]): ≤ 4.70
pKd (HLA-A*03:01 [14]; [29]): ≤ 4.70
pKd (HLA-B*15:01 [22]): 6.43
pKd (HLA-A*02:19 [23]; [29]): ≤ 4.70
pKd (HLA-A*02:16; [29]): ≤ 4.70
pKd (HLA-A*02:03 [24]; [29]): ≤ 4.70

Sequence: MQQGRFPPL
pKd (HLA-B*08:01; source organism: Yersinia pestis CO92): 6.47

Sequence: SMNYPNSYK
pKd (HLA-B*15:42): ≤ 5.30
pKd (HLA-A*26:01; [30]): ≤ 4.70
pKd (HLA-B*46:01 [4]; [30]): ≤ 4.70
pKd (HLA-B*51:01 [5]; [30]): ≤ 4.70
pKd (HLA-B*45:06): ≤ 5.30
pKd (HLA-B*18:01; [30]): ≤ 4.70
pKd (HLA-A*69:01; [30]): ≤ 4.70
pKd (HLA-A*02:01; [30]): ≤ 4.70
pKd (HLA-B*83:01): ≤ 5.30
pKd (HLA-B*15:17; [30]): ≤ 4.70
pKd (HLA-B*57:01 [11]; [30]): ≤ 4.70
pKd (HLA-B*39:01 [12]; [30]): ≤ 4.70
pKd (HLA-A*02:11 [18]; [30]): ≤ 4.70
pKd (HLA-A*29:02 [19]; [30]): ≤ 4.70
pKd (HLA-A*23:01; [30]): ≤ 4.70
pKd (HLA-A*24:03 [20]; [30]): ≤ 4.70
pKd (HLA-A*02:12 [21]; [30]): ≤ 4.70
pKd (HLA-A*68:02; [30]): ≤ 4.70
pKd (HLA-A*02:19 [23]; [30]): ≤ 4.70
pKd (HLA-A*02:16; [30]): ≤ 4.70
pKd (HLA-A*02:03 [24]; [30]): ≤ 4.70
pKd (HLA-A*11:01; [30]): ≥ 9.00

pKd (HLA-B*51:01 [25]): 5.72
Sequence: YPGFGEHLI
